By stoichiometry N is commonly meant the number of molecules, sites or subunits per partner or assembly.

The target of assay [1] is SNP-treated (S-nitrosylated) pea chloroplast 2-Cys Prx (Pisum sativum (pea)). Description: SEC; Superdex-200 HR 10/30, 50 mM Tris-HCl pH 7.5, 150 mM NaCl; DTT-reduced protein incubated with 750 uM SNP, excess removed. (In general: Size exclusion chromatography separates by hydrodynamic size, large species first.)
Assay [2] has as its target chloroplast 2-Cys Prx from pea (Pisum sativum), recombinant, not glutathionylated (Pisum sativum (pea)). In words: SEC; Superdex-200 HR 10/30, room temperature, 50 mM Tris-HCl pH 7.5, 150 mM NaCl, 0.5 mL/min; untreated (native) protein.
For assay [3] the target is unchanged. In words: SEC; Superdex-200 HR 10/30, room temperature, 50 mM Tris-HCl pH 7.5, 150 mM NaCl; protein (50 uM) reduced with 10 mM DTT for 30 min, excess DTT removed.
Assay [4] has as its target glutathionylated pea mitochondrial Prx IIF (Cys59-SG, Cys84-SG) (Pisum sativum (pea)). Description: SEC; Superdex-200 HR 10/30, 50 mM Tris-HCl pH 7.5, 150 mM NaCl; DTT-reduced protein incubated with 5 mM GSNO at room temperature (different incubation times for 2-Cys Prx), excess removed.
The target is the same in assay [5]. In words: SEC; Superdex-200 HR 10/30, 50 mM Tris-HCl pH 7.5, 150 mM NaCl; DTT-reduced protein incubated with 5 mM GSSG at 4 C for 24 h, excess removed.
The target in assay [6] is mitochondrial Prx IIF from pea (Pisum sativum), recombinant, not glutathionylated (Pisum sativum (pea)). Description: SEC; Superdex-200 HR 10/30, room temperature, 50 mM Tris-HCl pH 7.5, 150 mM NaCl, 0.5 mL/min; untreated (native) protein.
Assay [7] shares this target. Description: SEC; Superdex-200 HR 10/30, room temperature, 50 mM Tris-HCl pH 7.5, 150 mM NaCl; protein (50 uM) reduced with 10 mM DTT for 30 min, excess DTT removed.

Turning to “SNP-treated (S-nitrosylated) pea chloroplast 2-Cys Prx (enzyme)”, the stoichiometry N in assay [1] is 10.

For “chloroplast 2-Cys Prx from pea (Pisum sativum), recombinant, not glutathionylated (enzyme)”, the stoichiometry N in assay [2] stood at 2; in assay [3] it was 10.

Regarding “glutathionylated pea mitochondrial Prx IIF (Cys59-SG, Cys84-SG) (enzyme)”, the stoichiometry N in assay [4] and in assay [5] was 2 in each case.

In the case of “mitochondrial Prx IIF from pea (Pisum sativum), recombinant, not glutathionylated (enzyme)”, the stoichiometry N stood at 6 in assay [6] and 2 in assay [7].

(Values after PMC5283164.)
